T1: Trypanosoma brucei deoxyhypusine synthase, catalytic paralog (TbDHSc), His-SUMO tag removed (T. brucei, UniProt Q38BX0 1-461)
T1 sequence: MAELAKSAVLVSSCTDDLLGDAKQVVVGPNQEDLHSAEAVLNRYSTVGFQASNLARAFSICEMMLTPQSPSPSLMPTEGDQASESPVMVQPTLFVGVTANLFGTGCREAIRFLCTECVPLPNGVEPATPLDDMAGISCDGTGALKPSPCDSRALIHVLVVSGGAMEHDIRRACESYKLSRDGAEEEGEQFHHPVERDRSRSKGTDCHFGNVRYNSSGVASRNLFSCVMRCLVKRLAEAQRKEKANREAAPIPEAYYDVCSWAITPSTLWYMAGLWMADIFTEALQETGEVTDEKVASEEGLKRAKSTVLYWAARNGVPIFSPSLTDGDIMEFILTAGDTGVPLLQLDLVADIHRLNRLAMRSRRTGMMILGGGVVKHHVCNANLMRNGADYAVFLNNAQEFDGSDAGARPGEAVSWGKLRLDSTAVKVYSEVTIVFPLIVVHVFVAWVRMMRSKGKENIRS

B1: TbDHSc:DHSp (Trypanosoma brucei brucei TREU927) (protein)
chain 1: T1 sequence
chain 2: MSGVPFPSRVIGDLDYSNLLNIGQEEAIRCVLNAYPNIGLEATNLGRARRIVQRALNDNGMDGNKVMLAYTSNLISSGLRDTFACLARENRIGAVVTTAGGVEEDVIKCLGDTLVGDFALNDHALRNNGLNRVGNLLVPNDNYRNFEDFFVPLLRRLHEQQRDSRWTTKTTPSQIIAEIGAALESVRPNDCGSSLIYWCYRNDIPVFSPAFTDGSMGDMIYFYNYSRKGLVVDPVPDVRRLRQLGCKSTNVGRITCIVLGAGLPKHHLLRNVQADAVVYVTTGSDADGCESSCNVMADRANGLLSPNCDVVRVHGDATIISPLLLLRSSDGKEKVGVREDGN
B2: Trypanosoma brucei deoxyhypusine synthase prozyme paralog (TbDHSp), untagged (natural protein, T. brucei, UniProt Q4GZD1 1-342, looked up)
chain: B1 chain 2

Assays:
purified protein [1] = substrate: NC(=O)c1ccc[n+]([C@@H]2O[C@H](COP(=O)(O)OP(=O)(O)OC[C@H]3O[C@@H](n4cnc5c(N)ncnc54)[C@H](O)[C@@H]3O)[C@@H](O)[C@H]2O)c1; assay: purified protein; type: biochemical, Trypanosoma brucei; conditions: 78 μM [14C]spermidine, 15 μM TbeIF5A, 5 nM DHS; varied: cofactor
purified protein [2] = substrate: NCCCCNCCCN; assay: purified protein; type: biochemical, Trypanosoma brucei; conditions: 1 mM NAD+, 15 μM TbeIF5A, 5 nM DHS; labelled compound
[3] = target: T1, Trypanosoma brucei deoxyhypusine …; assay: crystal structure

Row | Binder | Km (purified protein [1]) | kcat (purified protein [1]) | Km (purified protein [2]) | kcat (purified protein [2]) | binding result [3]
1 | B1 | 1.3 ± 0.18 µM | 0.15 ± 0.0045 s⁻¹ | 9.8 ± 1.2 µM | 0.18 ± 0.01 s⁻¹ | –
2 | B2 | – | – | – | – | binds
